Source: patent US20220298237A1 (KEIO UNIVERSITY, published 2022)
Positions count from the first letter of the chain named.

Legend:
[1] = target: T1, oligopeptide ATYPSGHLDM (SEQ ID NO: 1) (human and mouse); assay: ELISA on peptide, Fab
T1 construct: Synthetic peptide; positions 148 to 157 of the human AQP3 polypeptide, identical in mouse; also called peptide used for immunization; oligopeptide 5
T1 peptide: ATYPSGHLDM

[2] = target: T2, mouse AQP3 in lysate of HEK293T cells overexpressing mouse AQP3 and a myc-biotinylated tag (mouse, UniProt Q8R2N1 1-292); assay: ELISA on lysate of HEK293T cells overexpressing mouse AQP3 (FIG. 3)
T2 construct: Cell lysate used in ELISA; also called AQP3 containing cell lysate; not shown: myc-biotinylated tag
T2 sequence (looked up): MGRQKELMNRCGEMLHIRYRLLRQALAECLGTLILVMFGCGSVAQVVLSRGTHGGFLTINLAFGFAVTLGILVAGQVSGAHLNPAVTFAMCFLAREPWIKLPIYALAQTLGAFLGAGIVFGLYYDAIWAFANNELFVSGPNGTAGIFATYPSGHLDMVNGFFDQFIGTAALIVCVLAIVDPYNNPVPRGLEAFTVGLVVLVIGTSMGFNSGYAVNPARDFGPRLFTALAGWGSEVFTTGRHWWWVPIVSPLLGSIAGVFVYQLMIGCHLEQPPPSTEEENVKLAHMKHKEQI
Text: Cell lysate from HEK293T cells overexpressing mouse AQP3 and a myc-biotinylated tag was used in an ELISA assay to measure the binding of antibodies A, B, C, D, E, F, G, H, J, and K to AQP3. Cell lysate from HEK293T cells overexpressing the myc-biotinylated tag but not AQP3 was used as control. […] C. Antibody binding to AQP3 expressing cells

[3] = target: T1, oligopeptide ATYPSGHLDM (SEQ ID NO: 1); assay: ELISA on the immunogen peptide (FIG. 2)
[4] = target: T3, mouse aquaporin 3 (AQP3) on cells (mouse, UniProt Q8R2N1 1-292); assay: fluorescence binding assay on PAM212 cells, 10 µg/mL (FIG. 5B)
T3 construct: whole, on cells; Water channel membrane protein; also called mouse AQP3; AQP3 on PAM212 cells
T3 sequence (looked up): T2 sequence (looked up)
Description: PAM212 and macrophage cells were reacted with each anti AQP3 antibody (0.1, 1, or 10 μg/mL) at 4° C. for 1 hour. After washing the cells, a fluorescent-labeled secondary antibody was added and the reaction was allowed to occur additionally for 1 hour (4° C.). By measuring the fluorescence intensity, the binding property of each anti AQP3 antibody to cells was obtained.
The assay was also performed using PAM212 cells and antibodies A, B, C, D, E, F, G, H, and J at a concentration of 10 μg/mL. Binding of antibodies C, D, E, G, and J to PAM212 cells was statistically significant.

[5] = target: T4, human aquaporin 3 (AQP3) on cells (human, UniProt Q92482 1-292); assay: fluorescence binding assay on HaCaT cells, 10 µg/mL (FIG. 5C)
T4 construct: whole, on cells; Water channel membrane protein; also called human AQP3; AQP3 on HaCaT cells
T4 sequence (looked up): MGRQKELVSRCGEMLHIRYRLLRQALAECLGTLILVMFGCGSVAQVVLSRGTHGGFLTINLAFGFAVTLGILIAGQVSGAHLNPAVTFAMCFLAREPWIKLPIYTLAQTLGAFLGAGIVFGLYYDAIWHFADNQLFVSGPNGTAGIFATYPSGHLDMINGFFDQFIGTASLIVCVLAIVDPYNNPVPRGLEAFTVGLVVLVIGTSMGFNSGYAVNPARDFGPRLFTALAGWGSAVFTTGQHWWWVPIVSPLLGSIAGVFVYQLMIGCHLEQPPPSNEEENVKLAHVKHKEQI

B1: BC-A8 (Fab) (Fab, V domains shown)
VH: QTVKESGGRLVTPGAPLTLTCTVSRFSLSSYAMTWVRQAPGKGLEWIGIINNDGSSSTWYASWVKGRFTISKTSTTMDLKMTSLTTEDTATYFCARGGTSGYDIWGPGTLVTVSL
VL: AQGLTQTPSPVSAAVGGTVTINCQSSPSVYKNYLSWYQQKPGQPPKLLIYGASTLASGVPSRFKGSGSGTQFTLTISDVQCDDAATYYCAGGYRGSSDIFAFGGGTEVVVK
[1]
  binding result: binds

B2: BC-A3 (Fab) (Fab, V domains shown)
VH: B1 VH with S55V
VL: B1 VL with G3V, S9A, P10S, G16R, P41S
[1]
  binding result: binds

B3: BC-A9 (Fab) (Fab, V domains shown)
VH: B1 VH with T2S, K4E, A15G, P16S, S55I, L110V
VL: B1 VL with S9A, P10S, P41S, V59A
[1]
  binding result: binds

B4: BC-B4 (Fab) (Fab, V domains shown)
VH: B1 VH with T2S, K4E, A15G, P16S, S55I, L110V
VL: B1 VL with Q2L, G3V, P27Q, S97G
[1]
  binding result: binds

B5: BC-C8 (Fab) (Fab, V domains shown)
VH: B1 VH with T2S, V3L, K4E, A15G, P16S, S55I, L110V
VL: B1 VL with Q2L, G3V
[1]
  binding result: binds

B6: BC-E1 (Fab) (Fab, V domains shown)
VH: B1 VH with T2S, T12A, A15T, T22A, R25G, S55R, L84P
VL: B1 VL with L4M, Q71R
[1]
  binding result: binds

B7: BC-E3 (Fab) (Fab, V domains shown)
VH: B1 VH with T2S, T12A, A15T, T22A, R25G, S55R, L84P
VL: B1 VL with L4M, Q71R
[1]
  binding result: binds

B8: BC-E4 (Fab) (Fab, V domains shown)
VH: B1 VH with T2S, T12A, A15T, T22A, R25G, S55R, L84P
VL: B1 VL with L4M, Q71R
[1]
  binding result: binds

B9: BC-E11 (Fab) (Fab, V domains shown)
VH: B1 VH with T2S, T12A, A15T, T22A, R25G, S55R, L84P
VL: B1 VL with L4M, Q71R
[1]
  binding result: binds

B10: BC-F2 (Fab) (Fab, V domains shown)
VH: B1 VH with T2S, T12A, A15T, T22A, R25G, S55R, L84P
VL: B1 VL with L4M, Q71R
[1]
  binding result: binds

B11: BC-F7 (Fab) (Fab, V domains shown)
VH: B1 VH with T2S, K4E, A15G, P16S, S55I, L110V
VL: B1 VL with Q2L, G3V, P27Q, S97G
[1]
  binding result: binds

B12: BC-G6 (Fab) (Fab, V domains shown)
VH: B1 VH with T2S, K4E, A15G, P16S, V23A, R25G, S30G, S55I
VL: B1 VL with Q2L, G3V, L4M
[1]
  binding result: binds

B13: BC-H4 (Fab) (Fab, V domains shown)
VH: B1 VH with T2Q, V3L, S55V, L115S
VL: B1 VL with Q2L, G3V, S97G
[1]
  binding result: binds

B14: SC-C7 (Fab) (Fab, V domains shown)
VH: B1 VH with S30G, G54I, S56G, L115S
VL: B1 VL with A1D, Q2V, G3V, L4M
[1]
  binding result: binds

B15: SC-D10 (Fab) (Fab, V domains shown)
VH: B1 VH with T2S, A15G, P16S, S55V
VL: B1 VL with Q2L, G3V, L4M, I21T, G51K, K64S
[1]
  binding result: binds

B16: SC-F6 (Fab) (Fab, V domains shown)
VH: B1 VH with T2S, S55I
VL: B1 VL with L4M, S9A, P10S, P41S
[1]
  binding result: binds

B17: SC-G8 (Fab) (Fab, V domains shown)
VH: B1 VH with T2S, K4E, T12M, A15G, P16S, V23A, R25G, S56G
VL: B1 VL with Q2A, G3V, G51K, S96Y
[1]
  binding result: binds

B18: SC-H10 (Fab) (Fab, V domains shown)
VH: B1 VH with T2S, V3L, K4E, S55I
VL: B1 VL with K64S
[1]
  binding result: binds

B19: Antibody B (antibody, mouse IgG2a, kappa, V domains shown)
VH: EVQLVESGGDLVKPGGSLKLSCAASGFTFSSYGMSWVRQTPDKRLEWVATISRGSIYTYYPDSVKGRFTISRDNAKNTLYLQMSSLKSEDTAMYYCARLSLYDYDGARYTMDYWGQGTSVTVSS
VL: DIVMTQSPKFMSTSVGDRVSITCKASQDVGTAVAWYQQKPGQSPKLLIYWASTRHTGVPDRFTGSGSGTDFTLTISNVQSEDLADYFCQQYSSYHTFGAGTKLELKR
notes: also called anti AQP3 antibody B
[2]
  binding result: binds
[3]
  binding result: binds

B20: Antibody D (antibody, mouse IgG2a, kappa, V domains shown)
VH: EVQLQQSGAELVRPGASVTLSCKASGYTFTDYEMHWVQQTPVHGLEWIGGIDPETGGTGYNQKFKGKAILTADKSSSTAYMELRSLTSEDSAVYFCTRHGSYAMDYWGQGTSVTVSS
VL: DIVMTQSPKFMSTSVGDRVSITCKASQDVSTAVAWYQQKPGQSPKLLIYWASTRHTGVPDRFTGSGSGTDYTLTISSVQAEDLALYYCQQHYSTPPTFGGGTRLEIKR
notes: also called anti AQP3 antibody D
[4]
  binding result: binds
[2]
  binding result: binds
[5]
  binding result: binds

B21: Antibody F (antibody, mouse IgG2a, kappa, V domains shown)
VH: QVQLKESGPELVKPGASVKISCKASGYTFTDYYINWVKQRPGQGLEWIGWIFPGSGSTYYNEKFKGKATLTVDKSSSTAYMLLSSLTSEDSAVYFCADYGSSYRYFDVWGAGTTVTVSS
VL: DIVMTQSPAILSASPGEKVTMTCRASSSVSYMHWYQQKPGSSPKPWIYATSYLASGVPARFSGSGSGTSYSLTIGRVEAEDAATYYCQQWSSNPLTFGAGTKLELKR
notes: also called anti AQP3 antibody F; Antiboy F
[2]
  binding result: binds

B22: Antibody K (antibody, mouse IgG2a, kappa, V domains shown)
VH: QVQLKQSGAELVRPGTSVKVSCKASGYAFTNYLIEWVKQRPGQGLEWIGVINPGSGGTNYNEKFKGKATLTADKSSSTAYMQLSSLTSEDSAVYFCARWGFYYAMDYWGQGTSVTVSS
VL: DIVMTQSPSSLSASLGERVSLTCRASQEISGYLSWLQQKPDGTIKRLIYAASTLDSGVPKRFSGSRSGSDYSLTISSLESEDFADYYCLQYASYPLTFGAGTKLEIKR
notes: also called anti AQP3 antibody K
[2]
  binding result: binds
[3]
  binding result: binds

B23: BC-E2 (Fab) (Fab, V domains shown)
VH: QEQLKESGGRLVTPGAPLTLTCTVSRFSLSSYAMTWVRQAPGKGLEWIGIINNDGISSTWYASWVKGRFTISKTSTTMDLKMTSLTTEDTATYFCARGGTSGYDIWGPGTLVTVSL
VL: B1 VL with Q2V, G3V, G51K
[1]
  binding result: binds

B24: SC-B2 (Fab) (Fab, V domains shown)
VH: B23 VH with K5M, G8R, A16G, P17S, S31N
VL: B1 VL with L4P, S97G
[1]
  binding result: binds

B25: Antibody A (antibody, mouse IgG2a, kappa, V domains shown)
VH: QVQLQQPGAELVRPGASVTLSCKASGYTFTDYEMHWVKQTPVHGLEWIGGVDPETGGTGYNQKFRGKAILTADKSSSTAYMELRSLTSEDSAVYYCARHGGSFYAMDYWGQGTSVTVSS
VL: B20 VL with R103K, I106L
notes: also called anti AQP3 antibody A
[2]
  binding result: binds

B26: SC-D1 (Fab) (Fab, V domains shown)
VH: B1 VH with T2S, V3L, K4E, G7R, A15G, P16S, R25G, S55V
VL: B1 VL with A1D, Q2P, G3M, L4M, D78G
[1]
  binding result: binds
